Results reported in PMC6548965.

These sequences were tested against AP heterodimer (IAP/PLAP) on LoVo cells (human) (UniProt P09923+P05187) (assay: flow cytometry). Details: 4 C, apparent Kd, PBS pH 7.4 (about 137 mM NaCl) with 5 mM MgCl2, 4.5 g/L glucose, 1 mg/mL BSA, 0.1 mg/mL herring sperm DNA, 30 min at 4 C.
Sequence of AP heterodimer (IAP/PLAP) on LoVo cells (human) (P09923 20-503, chain 1 of 2): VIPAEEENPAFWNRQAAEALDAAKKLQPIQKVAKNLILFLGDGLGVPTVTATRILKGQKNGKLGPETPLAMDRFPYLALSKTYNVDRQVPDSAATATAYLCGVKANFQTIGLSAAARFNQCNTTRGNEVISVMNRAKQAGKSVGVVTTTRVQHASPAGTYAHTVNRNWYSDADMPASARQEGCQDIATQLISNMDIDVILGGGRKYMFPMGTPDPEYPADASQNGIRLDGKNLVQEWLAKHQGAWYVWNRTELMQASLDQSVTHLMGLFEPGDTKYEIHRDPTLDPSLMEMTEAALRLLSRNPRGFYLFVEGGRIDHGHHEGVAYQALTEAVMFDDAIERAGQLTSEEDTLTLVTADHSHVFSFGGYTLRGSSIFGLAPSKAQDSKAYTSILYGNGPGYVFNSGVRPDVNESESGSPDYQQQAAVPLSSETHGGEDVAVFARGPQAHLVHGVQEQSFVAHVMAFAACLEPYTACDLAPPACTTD
Sequence of AP heterodimer (IAP/PLAP) on LoVo cells (human) (P05187 23-506, chain 2 of 2): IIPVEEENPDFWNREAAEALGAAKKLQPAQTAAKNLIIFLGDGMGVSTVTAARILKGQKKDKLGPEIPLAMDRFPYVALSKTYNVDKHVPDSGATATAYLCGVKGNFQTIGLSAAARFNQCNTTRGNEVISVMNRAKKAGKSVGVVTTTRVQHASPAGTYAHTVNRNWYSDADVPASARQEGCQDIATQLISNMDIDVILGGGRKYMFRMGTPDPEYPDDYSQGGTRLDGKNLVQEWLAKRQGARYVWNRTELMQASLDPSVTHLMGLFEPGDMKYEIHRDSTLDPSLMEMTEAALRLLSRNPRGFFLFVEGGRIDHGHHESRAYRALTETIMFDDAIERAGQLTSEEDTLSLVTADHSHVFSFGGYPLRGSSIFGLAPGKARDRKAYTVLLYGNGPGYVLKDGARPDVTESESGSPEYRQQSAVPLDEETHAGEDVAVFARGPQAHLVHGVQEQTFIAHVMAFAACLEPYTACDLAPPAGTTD

Point of comparison: “CAAGGAATAGGGGTCGGTGTGGGTGGTTATGATTGGCTTCCTTG [BG2]”, Kd 2.5 nM. Against it:
- TAAAAAATAGGGGTCGGTGTGGGTGGTTATGATTGGCTTTTTTA [BG4] — 4.6-fold higher, 11.5 nM
- TAGGGGTCGGTGTGGGTGGTTATGATTGGC [BG2c] — 3.7-fold higher, 9.3 nM
